The assay concerns the target C215 antigen (human GA-733 antigen recognized by the C215 mAb) (human) (UniProt P16422). Description: FACS on Colo205 cells.

Several values for one entry are separate records, joined by “and”; a condition that tells them apart may be missing. Identical values can stand only once.

Sequence of UniProt P16422 (P16422 24-314): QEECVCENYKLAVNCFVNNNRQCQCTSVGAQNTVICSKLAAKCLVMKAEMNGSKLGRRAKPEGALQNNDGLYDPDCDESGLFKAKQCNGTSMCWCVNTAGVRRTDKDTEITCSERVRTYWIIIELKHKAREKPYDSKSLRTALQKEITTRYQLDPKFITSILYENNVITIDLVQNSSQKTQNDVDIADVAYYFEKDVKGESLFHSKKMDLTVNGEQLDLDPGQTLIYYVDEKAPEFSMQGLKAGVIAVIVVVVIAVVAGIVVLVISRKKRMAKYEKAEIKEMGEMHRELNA

As for “CD80-C215Fab (from UniProt P33681 35-242)”, the fold lower binding than that of C215Fab-SEA is 50 fold lower and 100 fold lower; the fold reduction of binding compared to C215Fab-SEA was 100 fold reduced.

Values taken from US20050226885A1.
